System: MS2 coat protein
Test: apparent KD of MS2 coat protein; designed switch direction (-1 OFF switch, 1 ON switch): -1; higher = weaker reporter binding
Summary of the method: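 On Illumina chips, designed RNA switches with common flanks were made by stalled E. coli RNA polymerase. Titrations with SNAP-549-labelled MS2 coat protein, doubling from 0.7 or 1.5 nM to 3 µM, were done with no input, with 200 uM small-molecule ligand, or with an oligonucleotide input. Apparent KD is the median per design over clusters, from curve fits of normalised cluster fluorescence.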

[1] = input ligand: microRNA oligo, concentration not stated
[2] = Eterna round: R95, input ligand: microRNA oligo, concentration not stated
[3] = Eterna round: R95, input ligand: FMN 200 uM
[4] = Eterna round: R95, input ligand: none

For “GCUGCACAUGUAGGAUAUCUGCACGUUUAGUGCAGAGAAGGACAUGAGGAUCACCCAUGUAGAUCAGCAGCAAUUAAUUUAAUU [ENG1/6-A3] (Eterna round: R96, puzzle: Exclusion NG 1)”, the “apparent KD of MS2 coat protein” value (input ligand: FMN 200 uM) was 809 nM, the “apparent KD of MS2 coat protein” value [1] was 479 nM and the “apparent KD of MS2 coat protein” value (input ligand: none) was 473 nM.

For “GCUGGACAAGGAUAUGCAAUCGUGCUUCGGCACGUAAGGUCACAUGAGGAUCACCCAUGUAGAAGGUGUCCAGC [E2/4-C2] (Eterna round: R97, puzzle: Exclusion 2)”, the “apparent KD of MS2 coat protein” value (input ligand: FMN 200 uM) was 31.3 nM and the “apparent KD of MS2 coat protein” value (input ligand: none) was 16.1 nM.

With “GCUGGGUCAGGAUAUACAGGGUCGAAAGAUCUGUGAUACCUACAUGAGGAUCACCCAUGUAGAAGGGACUGGGC [ChP 11-04-2015 #10] (Eterna round: R96, puzzle: Exclusion 2)” the “apparent KD of MS2 coat protein” value (input ligand: FMN 200 uM) was 43.9 nM, the “apparent KD of MS2 coat protein” value [1] was 14 nM and the “apparent KD of MS2 coat protein” value (input ligand: none) was 18.9 nM.

“GCUGGGUCAGGAUAUACAGGGUCGAAAGAUCUGUGAUACCUACAUGAGGAUCACCCAUGUAGAAGGGACUGGGC [ChP 11-04-2015 #10] (puzzle: Exclusion 2)” was tested, and the “apparent KD of MS2 coat protein” value [2] was 14.2 nM.

With “GCUGGGUCAGGAUAUACGAGAUCGAAAGAUCGAAGAUCCGUACAUGAGGAUCACCCAUGUAGAAGGGACUGGGC [ChP 11-04-2015 #7] (puzzle: Exclusion 2)” the “apparent KD of MS2 coat protein” value [2] was 19.5 nM.

For “GCUGGUCGAGGAUAUACAUGAGGAUCACCCAUGUGAUCAGCAGUCCUCGGACUGCAAUGUAGAAGGUGACCAGC [E3/1-B1] (Eterna round: R97, puzzle: Exclusion 3)”, the “apparent KD of MS2 coat protein” value (input ligand: FMN 200 uM) was 583 nM and the “apparent KD of MS2 coat protein” value (input ligand: none) was 2270 nM.

For “GCUUGGCGAGGAUAUACAUGAGGAUCACCCAUGUGAGAGAAAAAAGUGAGGAAGAAAAGUAGAAGGCGCUGAGG [Mat - Exclusion 3 - Mod of Salish D57] (puzzle: Exclusion 3)”, the “apparent KD of MS2 coat protein” value [3] was 143 nM, the “apparent KD of MS2 coat protein” value [2] was 51.2 nM and the “apparent KD of MS2 coat protein” value [4] was 61.8 nM.

“GCUUGUAGAGGAUAUACGAGGGCCCGAGCGGCGAGAGCCGCACAUGAGGAUCACCCAUGUAGAAGGCUACUAUU [JL-ex2-4.19 ViennaUCT mod] (Eterna round: R97, puzzle: Exclusion 2)” was tested, and the “apparent KD of MS2 coat protein” value (input ligand: FMN 200 uM) was 358 nM and the “apparent KD of MS2 coat protein” value (input ligand: none) was 133 nM.

For “GGAAAACAUGAGGAUCACCCAUGUAAGGAUAUGCAAAAGGAUAUAGAAGGAAAAAUAAGCAGAAGGUACAAAGG [salish99-ex1_r3_097] (puzzle: Exclusion 1)”, the “apparent KD of MS2 coat protein” value [3] was 50.9 nM, the “apparent KD of MS2 coat protein” value [2] was 42.5 nM and the “apparent KD of MS2 coat protein” value [4] was 43.5 nM.

In the case of “GGAAACCUACCGCGACAUGAGGAUCACCCAUGUGAUUGGUUUUAGGAUAUCUGGAGAAUCCAGACAGAGAAGGAGGGCCGUCGC [Eternabot solution 38] (Eterna round: R96, puzzle: Exclusion NG 3)”, the “apparent KD of MS2 coat protein” value (input ligand: FMN 200 uM) was 77.5 nM, the “apparent KD of MS2 coat protein” value [1] was 28.5 nM and the “apparent KD of MS2 coat protein” value (input ligand: none) was 45.1 nM.

With “GGAAAGGUAGGAUAUACGAAGAAAAAGGGUAGAAGAAGAACACAUGAGGAUCACCCAUGUAGAAGGACCAAAGC [Mat - Exclusion 2 - Mod of my Tesla design - D15] (puzzle: Exclusion 2)” the “apparent KD of MS2 coat protein” value [3] was 56.5 nM, the “apparent KD of MS2 coat protein” value [2] was 20.9 nM and the “apparent KD of MS2 coat protein” value [4] was 23.9 nM.

For “GGAAAGGUAGGAUAUACGAAGAAAAAGGGUAGAAGAAUAACACAUGAGGAUCACCCAUGUAGAAGGACCAAAGC [Mat - Exclusion 2 - Mod of my Tesla design - D14] (puzzle: Exclusion 2)”, the “apparent KD of MS2 coat protein” value [3] was 96.8 nM, the “apparent KD of MS2 coat protein” value [2] was 25.1 nM and the “apparent KD of MS2 coat protein” value [4] was 25.8 nM.

“GGAAGGCGAGGAUAUGCAAUAAAGCAGGCGAAGGCCUGCAAACAUGAGGAUCACCCAUGUAGAAGGCGCGAGAA [AK-MS2ROC-r4-exclusion2-6.6] (Eterna round: R97, puzzle: Exclusion 2)” was tested, and the “apparent KD of MS2 coat protein” value (input ligand: FMN 200 uM) was 17.2 nM and the “apparent KD of MS2 coat protein” value (input ligand: none) was 26.1 nM.

“GGAAGGCGAGGAUAUGCAAUAAUACACUCGAAGGAGUGAUAACAUGAGGAUCACCCAUGUAGAAGGCGCGAGAA [AK-MS2ROC-r4-exclusion2-6] (Eterna round: R97, puzzle: Exclusion 2)” was tested, and the “apparent KD of MS2 coat protein” value (input ligand: FMN 200 uM) was 36.1 nM and the “apparent KD of MS2 coat protein” value (input ligand: none) was 36.1 nM.

In the case of “GGAAGGUGAGGAUAUACUAAGCCGGAAACGGCAGGUGAGAGACAUGAGGAUCACCCAUGUAGAAGGCACGGAGA [AK-MS2ROC-r4-exclusion2-17] (Eterna round: R97, puzzle: Exclusion 2)”, the “apparent KD of MS2 coat protein” value (input ligand: FMN 200 uM) was 291 nM and the “apparent KD of MS2 coat protein” value (input ligand: none) was 85.5 nM.

In the case of “GGACAGGGAGGAUAUACUUGAGGAUCACCCAAGUCGUAUAAUCGAUGAACACGCCGAAGUAGAAGGCCCAAAAG [Esorgebi] (Eterna round: R97, puzzle: Exclusion 3)”, the “apparent KD of MS2 coat protein” value (input ligand: FMN 200 uM) was 403 nM and the “apparent KD of MS2 coat protein” value (input ligand: none) was 131 nM.

With “GGACAGUCAGGAUAUACAUGAGGAUCACCCAUGUUGAGAUGUGAAAGGGCGGGAGUAGGUAGAAGGGACGAGAG [JR_Exclu3_Sub040] (puzzle: Exclusion 3)” the “apparent KD of MS2 coat protein” value [2] was 23.2 nM.

In the case of “GGAGAGAAACAGGAUAUGGGAGGGAGGACCGGACCAGAAGGGUUGACAUGAGGAUCACCCAUGUAGAGAUCCUC [AK-MS2ROC-r4-exclusion6-6.7] (Eterna round: R97, puzzle: Exclusion 6)”, the “apparent KD of MS2 coat protein” value (input ligand: FMN 200 uM) was 486 nM and the “apparent KD of MS2 coat protein” value (input ligand: none) was 1700 nM.

For “GGAGAGAUAUAGGAUAUGGGAGGGAGGACCGGACCAGAAGGAUAGACAUGAGGAUCACCCAUGUAGAGAUCCUC [AK-MS2ROC-r4-exclusion6-6.1] (Eterna round: R97, puzzle: Exclusion 6)”, the “apparent KD of MS2 coat protein” value (input ligand: FMN 200 uM) was 302 nM and the “apparent KD of MS2 coat protein” value (input ligand: none) was 270 nM.

For “GGAGCGGAAGGAUAUGCUGCGGGAUUGAAUGGAAAGAAAAUACAUGAGGAUCACCCAUGUAGAAGGUCCGUGAA [Tiquxe] (puzzle: Exclusion 2)”, the “apparent KD of MS2 coat protein” value [2] was 17 nM.

“GGAUCACAUGUUAGGAUAUGCUGGUCCUUGGAUCAGCAGAAGGGACAUGAGGAUCACCCAUGUCAUGAAGAUCC [Eli bmx4 4.81] (Eterna round: R97, puzzle: Brourd's mod of Exclusion 4)” was tested, and the “apparent KD of MS2 coat protein” value (input ligand: FMN 200 uM) was 52.8 nM and the “apparent KD of MS2 coat protein” value (input ligand: none) was 24.1 nM.

In the case of “GGAUCGAAUGUCAGGAUAUACCACUGGAUACAGUGGUAGAAGGGACAUGAGGAUCACCCAUGUGUUAUCGAUCC [Fiskers BMX 4 - 56] (puzzle: Brourd's mod of Exclusion 4)”, the “apparent KD of MS2 coat protein” value [2] was 36.5 nM.

With “GGAUCGAAUGUGAGGAUAUACCUAUGGAAACAUAGGUAGAAGGCACAUGAGGAUCACCCAUGUCCAAACGGUCC [Mat - Exclusion 4 - Eli Mod - D13] (Eterna round: R97, puzzle: Brourd's mod of Exclusion 4)” the “apparent KD of MS2 coat protein” value (input ligand: FMN 200 uM) was 1050 nM and the “apparent KD of MS2 coat protein” value (input ligand: none) was 225 nM.

For “GGAUCGAAUGUGAGGAUAUGCAGGUCCUUGGAUCUGCAGAAGGCACAUGAGGAUCACCCAUGUGAUCAAGAUCC [Mat - Exclusion 4 - Eli Mod - D48] (Eterna round: R97, puzzle: Brourd's mod of Exclusion 4)”, the “apparent KD of MS2 coat protein” value (input ligand: FMN 200 uM) was 63 nM and the “apparent KD of MS2 coat protein” value (input ligand: none) was 772 nM.

In the case of “GGAUCGAAUGUGAGGAUAUGCUGGUCCUUGGAUCAGCAGAAGGCACAUGAGGAUCACCCAUGUGAUAUCGAUCC [Eli bmx4 4.71] (Eterna round: R97, puzzle: Brourd's mod of Exclusion 4)”, the “apparent KD of MS2 coat protein” value (input ligand: FMN 200 uM) was 443 nM and the “apparent KD of MS2 coat protein” value (input ligand: none) was 89.2 nM.

“GGAUCGAGUGUGAGGAUAUACCACUGGAUACAGUGGUAGAAGGCACAUGAGGAUCACCCAUGUCCCUACGAUCC [Fiskers BMX 4 - 45] (puzzle: Brourd's mod of Exclusion 4)” was tested, and the “apparent KD of MS2 coat protein” value [2] was 28.2 nM.

In the case of “GGAUCUACUGAGGAUAUUACAUCACCCGAUUGAUAAGAAGGCAGAACAUGAGGAUCACCCAUGUGGGUAGCCAA [Polaris] (Eterna round: R97, puzzle: Exclusion 6)”, the “apparent KD of MS2 coat protein” value (input ligand: FMN 200 uM) was 36.9 nM and the “apparent KD of MS2 coat protein” value (input ligand: none) was 21 nM.

With “GGCACACAUGAGGAUCACCCAUGUGAGGAUAUUAGGCGAUCGUCGAAAGACGAUAGCCUGAGAAGGCACAUGCC [Eli x1 4.12] (Eterna round: R97, puzzle: Exclusion 1)” the “apparent KD of MS2 coat protein” value (input ligand: FMN 200 uM) was 92.2 nM and the “apparent KD of MS2 coat protein” value (input ligand: none) was 19.8 nM.

For “GGCAUCGGAGGAUAUACUUAAGGUGAUGUUCGAAGCUUUCUACUUGAGGAUCACCCAAGUAGAAGGCCGAUGCC [jl-ex2.4.77 ViennaUCT mod] (Eterna round: R97, puzzle: Exclusion 2)”, the “apparent KD of MS2 coat protein” value (input ligand: FMN 200 uM) was 7.63 nM and the “apparent KD of MS2 coat protein” value (input ligand: none) was 19.6 nM.

With “GGCCCGGGAGGAUAUACAAUGGGCUCGGGAAAUCGGGCUCGACAUGAGGAUCACCCAUGUAGAAGGCCCGGGCC [-36.5, -34.6 kcal A 24%, 4,0] (Eterna round: R97, puzzle: Exclusion 2)” the “apparent KD of MS2 coat protein” value (input ligand: FMN 200 uM) was 34 nM and the “apparent KD of MS2 coat protein” value (input ligand: none) was 21.8 nM.

For “GGCCCGGGAGGAUAUACAUGAGGAUCACCCAUGUAGCCCGGCCCGAUCGGGCCGGGCUGUAGAAGGCCCGGGCC [-49.2, -46.3 kcal, 19% A] (Eterna round: R97, puzzle: Exclusion 3)”, the “apparent KD of MS2 coat protein” value (input ligand: FMN 200 uM) was 16.9 nM and the “apparent KD of MS2 coat protein” value (input ligand: none) was 13 nM.

For “GGCCCUAAGGUCAGAUCCACAAGCUUUUUGCUCGUUUUAACAUGAGGAUCACCCAUGUCUAGUGGAUCUGAUCCUCU [Sensor v3, turn-off variant 2 (MOD of Indiso v.4)] (puzzle: Sensor v3, turn-off variant 2)”, the “apparent KD of MS2 coat protein” value [3] was 25.2 nM, the “apparent KD of MS2 coat protein” value [2] was 15.4 nM and the “apparent KD of MS2 coat protein” value [4] was 21.6 nM.

For “GGCCGUAAUAAGGAUAUCACUAGCCUCGGCUAGUGAGAAGGUAUUACAUGAGGAUCACCCAUGUGAUCAGGCCA [E6/3-B2] (Eterna round: R97, puzzle: Exclusion 6)”, the “apparent KD of MS2 coat protein” value (input ligand: FMN 200 uM) was 862 nM and the “apparent KD of MS2 coat protein” value (input ligand: none) was 160 nM.

“GGCCGUUUUCGGCCCGGGCGGGCCACAUGAGGAUCACCCAUGUAGGAUAUCGCCGGGUUUCCCGGCGAGAAGGGCAGGGCCCGC [first try] (Eterna round: R96, puzzle: Exclusion NG 3)” was tested, and the “apparent KD of MS2 coat protein” value (input ligand: FMN 200 uM) was 13.4 nM, the “apparent KD of MS2 coat protein” value [1] was 13.7 nM and the “apparent KD of MS2 coat protein” value (input ligand: none) was 17.5 nM.

Reference: the supplement of paper PMC9170038
